Values quoted from earlier work, collected in article PMC7349879.
Each block holds one substance with its values, some of them ahead of it.

Assays:
EpCAM (Homo sapiens) = EpCAM (Homo sapiens) (UniProt P16422)
[1] = molecular target: EpCAM cis-dimer (Homo sapiens) (UniProt P16422)
β-catenin (Homo sapiens) = β-catenin (Homo sapiens) (UniProt P35222)
UniProt P35222, sequence (P35222 2-781): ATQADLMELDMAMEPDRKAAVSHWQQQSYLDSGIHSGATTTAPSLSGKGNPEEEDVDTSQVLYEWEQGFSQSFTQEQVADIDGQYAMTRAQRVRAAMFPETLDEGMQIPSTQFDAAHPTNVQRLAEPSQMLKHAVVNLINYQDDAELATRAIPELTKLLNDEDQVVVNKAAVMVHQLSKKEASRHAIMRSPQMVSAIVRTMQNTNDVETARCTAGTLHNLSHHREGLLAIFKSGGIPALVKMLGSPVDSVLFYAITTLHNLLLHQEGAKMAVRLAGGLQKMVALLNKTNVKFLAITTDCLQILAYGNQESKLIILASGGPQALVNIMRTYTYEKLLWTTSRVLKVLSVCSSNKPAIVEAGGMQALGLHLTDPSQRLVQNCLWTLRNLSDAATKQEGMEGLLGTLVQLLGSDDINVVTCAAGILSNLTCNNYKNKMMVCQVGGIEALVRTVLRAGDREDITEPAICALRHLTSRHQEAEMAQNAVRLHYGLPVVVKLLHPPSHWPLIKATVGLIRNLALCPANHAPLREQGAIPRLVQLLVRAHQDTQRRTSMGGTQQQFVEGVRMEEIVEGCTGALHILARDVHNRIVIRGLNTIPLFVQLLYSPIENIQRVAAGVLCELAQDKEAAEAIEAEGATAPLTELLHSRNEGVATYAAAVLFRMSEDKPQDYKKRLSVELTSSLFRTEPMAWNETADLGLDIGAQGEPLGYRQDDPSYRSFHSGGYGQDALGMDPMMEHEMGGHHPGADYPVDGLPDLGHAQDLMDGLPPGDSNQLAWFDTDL

- Kd (EpCAM (Homo sapiens)): < 10 nM
Substance: EpCAM (from UniProt P16422)

- Kd [1]: 10000 nM
Substance: EpCAM cis-dimer (from UniProt P16422)

- Kd (β-catenin (Homo sapiens)): 1080 nM
Substance: FHL2 (from UniProt Q14192)
